Experimental data from patent US20210269521A1 (L AND L BIOPHARMA, published 2021).

Legend:
[1] = target: T1, human PD-1 extracellular domain protein expressed in Example 1 (tag not stated) (human, UniProt Q15116 25-170); test: ELISA, PD-1 coated
T1 construct: extracellular domain; also called PD-1 protein; not shown: human IgG1 Fc or his tag
Experimental: PD-1 expressed in Example 1 was diluted to a concentration of 1 μg/ml with PBS buffer, pH 7.4, and added to a 96-well microplate (Corning, CLS3590-100EA) at 50 μl per well, thereby incubating in an incubator at 37° C. for 2 hours. After discarding the liquid, a blocking solution of 5% skimmed milk (Shanghai Shenggong Biological Engineering Co., Ltd., A600669-0250) diluted with PBS was added at 200 μl per well, followed by incubating at 37° C. for 3 hours or 4° C. overnight (16-18 hours)) for blocking. Subsequently, the blocking solution was discarded, and the microplate was washed 5 times with PBST buffer (pH 7.4 PBS containing 0.05% tween-20). […] Subsequently, the microplate was washed 5 times with PBST, then 50 μl/well of 1:2500 diluted HRP-labeled secondary antibody (Jackson Immuno Research, 115-035-003) was added, thereby incubating at 37° C. for 1 hour. After washing the microplate 5 times with PBST, 50 μl/well TMB chromogenic substrate (KPL, 52-00-03) was added, then incubated at room temperature for 5-10 min. Finally, 50 μl/well of 1M H₂SO₄ was added to stop the reaction. […] Go microplate reader (ThermoFisher, 51119200) was used to read the absorption value at 450 nm and the EC50 based on the OD value was calculated.
The above-mentioned TIM-3 and PD-1 bispecific antibodies of the present invention were optimized and designed using the methods of Example 2 and Example 5, and their affinity for TIM-3 and PD-1 were tested respectively.

[2] = target: T2, human TIM-3 extracellular domain-human IgG1 Fc fusion protein (human, UniProt Q8TDQ0 22-199); test: ELISA; pH 5.5, 40°C 5 days
T2 construct: Made in house or bought (ACROBiosystems TM3-H5258); also called TIM-3-hFc; not shown: human IgG1 Fc

[3] = target: T1, human PD-1 extracellular domain protein …; test: ELISA; pH 5.5, 40°C 5 days
[4] = target: T2, human TIM-3 extracellular domain-human …; test: ELISA; pH 5.5, 37°C 10 days
[5] = target: T1, human PD-1 extracellular domain protein …; test: ELISA; pH 5.5, 37°C 10 days
[6] = target: T2, human TIM-3 extracellular domain-human …; test: ELISA; PBS, 0 day, against 0 day
[7] = target: T1, human PD-1 extracellular domain protein …; test: ELISA; PBS, 0 day, against 0 day
[8] = target: T2, human TIM-3 extracellular domain-human …; test: ELISA; 37°C 0 day, against 0 day
[9] = target: T1, human PD-1 extracellular domain protein …; test: ELISA; 37°C 0 day, against 0 day
[10] = target: T2, human TIM-3 extracellular domain-human …; test: ELISA; pH 5.5, 0 day, against 0 day
[11] = target: T1, human PD-1 extracellular domain protein …; test: ELISA; pH 5.5, 0 day, against 0 day
[12] = target: T2, human TIM-3 extracellular domain-human …; test: ELISA; pH 6.0, 0 day, against 0 day
[13] = target: T1, human PD-1 extracellular domain protein …; test: ELISA; pH 6.0, 0 day, against 0 day
[14] = target: T2, human TIM-3 extracellular domain-human …; test: ELISA; pH 5.5, 37°C 5 days, against 0 day
[15] = target: T2, human TIM-3 extracellular domain-human …; test: ELISA; 15 mg/mL, His buffer pH 5.5, 37°C 0 day (-80°C)
[16] = target: T1, human PD-1 extracellular domain protein …; test: as above

B1: bispecific antibody LB141 (bispecific antibody, human IgG4 S228P, kappa)
light: EIVLTQSPATLSLSPGERATLSCRASKGVSTSGYSYLHWYQQKPGQAPRLLIYLASYLESGVPARFSGSGSGTDFTLTISSLEPEDFAVYYCQHSRDLPLTFGGGTKVEIKRTVAAPSVFIFPPSDEQLKSGTASVVCLLNNFYPREAKVQWKVDNALQSGNSQESVTEQDSKDSTYSLSSTLTLSKADYEKHKVYACEVTHQGLSSPVTKSFNRGEC
heavy: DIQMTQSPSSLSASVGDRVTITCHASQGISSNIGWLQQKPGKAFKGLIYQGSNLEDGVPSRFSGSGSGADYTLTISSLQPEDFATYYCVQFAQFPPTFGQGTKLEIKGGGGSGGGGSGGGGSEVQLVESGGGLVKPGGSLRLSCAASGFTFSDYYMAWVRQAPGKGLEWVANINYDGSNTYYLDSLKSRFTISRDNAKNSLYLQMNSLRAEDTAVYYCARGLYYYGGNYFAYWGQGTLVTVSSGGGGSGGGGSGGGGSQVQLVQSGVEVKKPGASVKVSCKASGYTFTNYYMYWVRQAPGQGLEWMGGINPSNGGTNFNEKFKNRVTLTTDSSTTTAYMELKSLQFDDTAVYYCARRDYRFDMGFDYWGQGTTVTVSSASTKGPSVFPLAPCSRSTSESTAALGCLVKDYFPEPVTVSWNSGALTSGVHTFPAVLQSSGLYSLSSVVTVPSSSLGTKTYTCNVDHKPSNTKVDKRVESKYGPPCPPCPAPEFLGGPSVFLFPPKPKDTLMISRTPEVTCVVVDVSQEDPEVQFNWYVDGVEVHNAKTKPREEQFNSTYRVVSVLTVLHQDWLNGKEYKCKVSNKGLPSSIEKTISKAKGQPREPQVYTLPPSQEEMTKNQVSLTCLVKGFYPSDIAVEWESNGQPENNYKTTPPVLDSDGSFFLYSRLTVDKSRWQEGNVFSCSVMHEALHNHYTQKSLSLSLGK
notes: ab6VL-(G4S)3-ab6VH-(G4S)3-PemVH-hIgG4 with PemVL-κ
[1]
  EC50: 52 pM
[2]
  EC50: 341 pM
[3]
  EC50: 200 pM
[4]
  EC50: 307 pM
[5]
  EC50: 198 pM
[6]
  Fold change of EC50: 1 ratio
[7]
  Fold change of EC50: 1 ratio
[8]
  Fold change of EC50: 1 ratio
[9]
  Fold change of EC50: 1 ratio
[10]
  Fold change of EC50: 1 ratio
[11]
  Fold change of EC50: 1 ratio
[12]
  Fold change of EC50: 1 ratio
[13]
  Fold change of EC50: 1 ratio
[14]
  Fold change of EC50: 0.93 ratio
[15]
  EC50: 148 pM
[16]
  EC50: 144 pM
